From patent publication US20240279645A1, “METHODS AND CO[…] TO A MODIFIED METHYLTRANSFERASE” (priority 2021, published 2024) come the findings set out here.

In one experiment the test system is THP sensor (THP4.2). Description: Response of the THP reporter plasmid (pThpR) to alkaloids. Format: cell-based. The settings on record: pThpR reporter fluorescence (FIG. 2b).
A short description of experiment [1]: LC/MS analysis of enzymatic reactions of OMT variants with norlaudanosoline (extracted ion chromatogram areas). The experiment is classed as cell-based, E. coli. The following applies: for Observed EIC Areas 3OH (302.1387 m/z): 6-O-Methylnorlaudanosoline, retention time 2.85 min; for Observed EIC Areas 3OH (302.1387 m/z) / Observed EIC Areas 1OH (330.1700 m/z) / Observed EIC Areas NOR-4OH (288.1230 m/z) / Observed EIC Areas NRT-2OH (316.1543 m/z) / Observed EIC Areas THP-0OH (344.1856 m/z): strains grown in the presence of 10 uM NOR, single replicates of a biological triplicate; for Observed EIC Areas 1OH (330.1700 m/z): norlaudanine, retention time 3.41 min; for Observed EIC Areas NOR-4OH (288.1230 m/z): norlaudanosoline, retention time 2.46 min; for Observed EIC Areas NRT-2OH (316.1543 m/z): norreticuline, retention time 3.14 min; for Observed EIC Areas THP-0OH (344.1856 m/z): tetrahydropapaverine, retention time 3.58 min. Here is the method: (§1) (a) Genetic scheme for O-methyltransferase (OMT) evolution. A plasmid expressing the OMT variant (blue) is co-transformed with a plasmid expressing GFP regulated by a tetrahydropapaverine-responsive biosensor (THP4.1). OMT libraries are plated with norlaudanosoline (NOR) and highly fluorescent colonies are picked, characterized, and the top variant is used for the following round of evolution. (b) Homology structure of the template OMT (GfOMT1) with mutations in evolved variants shown in orange and labelled. The substrate NOR and cofactor S-adenosyl-methionine are shown in pink and green respectively. (c) Fluorescence response of the THP4.1 reporter plasmid cultured with either 0, 10, or 100 uM of (NOR) and an empty plasmid (TAA), GfOMT1 (WT) or evolved OMT variants. (d) Representative ion extracted chromatograms of strains expressing engineered OMT variants, or controls, grown in the presence of 10 uM NOR. All LC-MS chromatograms were selected for the theoretical m/z values and retention times of the respective compounds of interest.
Cells expressing an empty plasmid (TAA) or an OMT variant were cultured in the presence of 10 uM NOR and 1 mg/mL ascorbic acid for 18 hours at 30 C and THP was quantified with LC/MS by fitting to a standard curve (R2=0.9999). Measurements were performed in biological triplicate. […]
The top two rows indicate the ml/z ratio and retention time for compounds of interest (norlaudanosoline (NOR-4OH), 6-O-Methylnorlaudanosoline (3OH), norreticuline (NRT-2OH), norlaudanine (1OH), and tetrahydropapaverine (THP-0OH). All sample measurements were performed in biological triplicate.

Experiment [2] can be described thus: pThpR reporter fluorescence of cells expressing a methyltransferase cultured with norlaudanosoline. Format: cell-based, E. coli. The settings on record: cultured with norlaudanosoline (100 uM, 1 mg/mL ascorbic acid, 18 hours, 30° C., FIG. 3). Here is the method: Cells expressing either an empty plasmid (TAA) or a BIA methyltransferase were co-transformed with pThpR and grown in the presence of 100 uM of norlaudanosoline and 1 mg/mL ascorbic acid for 18 hours at 30° C. and culture fluorescence was subsequently measured. Measurements were performed in biological triplicate.
as §1, with “interest. […]” for “interest.”

Several values for one entry are separate records, joined by “and”; a condition that tells them apart may be missing. Equal entries are not always repeated.

Consider `COc1ccc(C[C@@H]2NCCc3cc(OC)c(O)cc32)cc1O` [norreticuline], for which the “responsiveness of the THP sensor to the alkaloid” value in the experiment on THP sensor (THP4.2) was “somewhat responsive”.
As to `Oc1ccc(CC2NCCc3cc(O)c(O)cc32)cc1O` (stereo not drawn) [unmethylated substrate, norlaudanosoline], in the experiment on THP sensor (THP4.2), the “responsiveness of the THP sensor to the alkaloid” value is reported as “not”.

B1: WT: wild-type O-methyltransferase GfOMT1 from Glaucium flavum, template for evolution (protein)
chain: MGVSDNKPESQEVDIKAQAHLWNIIYGFADSLVLRCAVEIGIADIIKSNNGSISVTELASKLPITNVNSDNLYRVLRYLVHMGILKEVSDSNEVKLYSLQPVATLLLRDAERSMVPIILGMTQKDFMIPWHFMKEGLGNDTTAFEKGMGMTIWQYLEGHPEQSNLFNEGMAGETRLLTKSLIDGCRDTFEGLTSLCDVGGGNGTTIKGIYDAFPQIKCSVYDLPHVIASSPEHPNIERIPGDMFKSVPSAQAILLKLILHDWTDEECVNILIKCREAVPKDTGKVIIVDVALEEESQHELTKTRLILDIDMLVNTGGRERSEDDWEKLLKRAGFRGHKIRHIAAIQSVIEAFP
On to B1, for which, in experiment [1], the “Observed EIC Areas 3OH (302.1387 m/z)” value is 838,007.19 and 678,233.01 and 956,624.78; the “Observed EIC Areas 1OH (330.1700 m/z)” value was determined as 0.00; the “Observed EIC Areas NOR-4OH (288.1230 m/z)” value (“Observed EIC Areas NOR-4OH” for short) was 292,886.91 and 183,019.07 and 553,463.54; the “Observed EIC Areas NRT-2OH (316.1543 m/z)” value (“Observed EIC Areas NRT-2OH” for short) is 5,016,094.31 and 4,455,448.19 and 5,512,157.20. In addition, in experiment [1], the “Observed EIC Areas THP-0OH (344.1856 m/z)” value (“Observed EIC Areas THP-0OH” for short) is 715,848.03 and 726,021.76 and 724,935.11. In addition, in experiment [2], the “fluorescent signal in E. coli bearing pThpR, panel of methyltransferases” value is “produced the highest fluorescent signal”.

B2: Gen2: evolved GfOMT1 variant, second round, in which the W22L mutation occurred (protein)
chain: MGVSDNKPESQEVDIKAQAHLLNIIYGFADSLVLRCAVEIGIADIIKSNNGSISVTELASKLPITNVNSDNLYRVLRYLVHMGILKEVSDSNEVKLYSLQPVATLLLRDAERSMVPIILGMTQKDFMIPWHFMKEGLGNDTTAFERGMGMTIWQYLEGHPEQSNLFNEGMAGETRLLAKSLIDGCRDTFEGLTSLCDVGGGNGTTIKGIYDAFPQIKCSVYDLPHVIASSPEHPNIERIPGDMFKSVPSAQAILLKLILHDWTDEECVNILIKCREAVPKDTGKVIIVDVALEEESQHELTKTRLILDIDMLVNTGGRERSEDDWEKLLKRAGFRGHKIRHIAAIQSVIEAFP
Consider B2, for which, in experiment [1], the “Observed EIC Areas 3OH (302.1387 m/z)” value was 730,076.27 and 485,465.06 and 582,826.88; the “Observed EIC Areas 1OH (330.1700 m/z)” value is 4,013,082.04 and 4,748,195.68 and 4,367,581.54; the “Observed EIC Areas NOR-4OH” value was 641,245.71 and 251,793.95 and 457,481.05; the “Observed EIC Areas NRT-2OH” value was 2,721,068.90 and 1,499,029.94 and 2,227,163.03. Further, the “Observed EIC Areas THP-0OH” value in experiment [1] is 768,144.56 and 825,357.07 and 796,201.94.

B3: Gen1: evolved GfOMT1 O-methyltransferase variant, first round of evolution (protein)
chain: MGVSDNKPESQEVDIKAQAHLWNIIYGFADSLVLRCAVEIGIADIIKSNNGSISVTELASKLPITNVNSDNLYRVLRYLVHMGILKEVSDSNEVKLYSLQPVATLLLRDAERSMVPIILGMTQKDFMIPWHFMKEGLGNDTTAFERGMGMTIWQYLEGHPEQSNLFNEGMAGETRLLAKSLIDGCRDTFEGLTSLCDVGGGNGTTIKGIYDAFPQIKCSVYDLPHVIASSPEHPNIERIPGDMFKSVPSAQAILLKLILHDWTDEECVNILIKCREAVPKDTGKVIIVDVALEEESQHELTKTRLILDIDMLVNTGGRERSEDDWEKLLKRAGFRGHKIRHIAAIQSVIEAFP
For the molecule B3, in experiment [1], the “Observed EIC Areas 3OH (302.1387 m/z)” value is 262,284.74 and 357,195.05 and 194,528.60; the “Observed EIC Areas 1OH (330.1700 m/z)” value is 0.00; the “Observed EIC Areas NOR-4OH” value was 127,968.53 and 189,597.68 and 69,624.59; the “Observed EIC Areas NRT-2OH” value was 5,028,466.49 and 5,328,381.15 and 4,578,048.19. The “Observed EIC Areas THP-0OH” value in experiment [1] was 662,206.48 and 685,462.09 and 627,833.84.

B4: Gen4: evolved GfOMT1 O-methyltransferase variant, fourth round of evolution (protein)
chain: MGVSDNKPESQEVDIKAQAHLLNIIYGFADSLVLRCAVEIGIADIIKSNNGSISVTELASKLPITNVNSDNLYRVLRYLVHMGILKEVSDSNEVKLYSLQPVATLLLRDAERSMVPIILGMTQKDFMIPWHFMKEGLGNDTTAFERGMGMTIWQYLEGHPEQSNLFNEGMAGETRLMAKSLIDGCRDTFEGLTSLCDVGGGNGTTIKGIYDAFPQIKCSVYDLPHVIASSPEHPNIERIPGDMFKSVPSAQAILLKLVLHDWTDEECVNILIKCREAVPKDTGKVIIVDVALEEESQHELTKTRLILDIDMLVNTGGRERSEDDWEKLLKRAGFRGHKIRHIAAIQSVIEAFP
For B4, in experiment [1], the “Observed EIC Areas 3OH (302.1387 m/z)” value was 0.00; the “Observed EIC Areas 1OH (330.1700 m/z)” value is 1,994,412.63 and 1,353,523.79 and 2,054,059.80; the “Observed EIC Areas NOR-4OH” value is 242,876.32 and 139,427.97 and 249,690.78; the “Observed EIC Areas NRT-2OH” value is 639,571.41 and 488,824.56 and 684,700.15. In addition, the “Observed EIC Areas THP-0OH” value in experiment [1] is 10,694,641.10 and 11,406,507.42 and 10,304,271.54. In experiment [1] (LC/MS, 10 uM NOR, 18 hours at 30 C (FIG. 4d, FIG. 7)), the “THP production, selectivity and efficiency” value is “produced THP more selectively and efficiently than GEN5”.
